Experiments:
Experiment in all cases: cell-based or functional assay
[1] = target: P-cNsp1-P
[2] = target: P-1NLP-P
[3] = target: P-2NLP-P
P-2NLP-P, sequence (chain, as listed by the source): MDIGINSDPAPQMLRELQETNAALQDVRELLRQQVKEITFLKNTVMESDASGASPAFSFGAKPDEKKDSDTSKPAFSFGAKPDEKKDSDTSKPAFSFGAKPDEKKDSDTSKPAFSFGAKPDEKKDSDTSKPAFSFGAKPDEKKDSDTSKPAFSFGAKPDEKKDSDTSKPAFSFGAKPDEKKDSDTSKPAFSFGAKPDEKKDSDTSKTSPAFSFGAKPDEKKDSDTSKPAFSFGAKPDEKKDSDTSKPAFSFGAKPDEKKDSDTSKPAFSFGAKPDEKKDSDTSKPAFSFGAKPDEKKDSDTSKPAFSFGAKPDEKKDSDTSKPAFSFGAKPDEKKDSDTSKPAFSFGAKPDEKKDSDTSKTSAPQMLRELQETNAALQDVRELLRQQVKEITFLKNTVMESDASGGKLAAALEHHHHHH

P-1NLP-P, sequence (chain, as listed by the source): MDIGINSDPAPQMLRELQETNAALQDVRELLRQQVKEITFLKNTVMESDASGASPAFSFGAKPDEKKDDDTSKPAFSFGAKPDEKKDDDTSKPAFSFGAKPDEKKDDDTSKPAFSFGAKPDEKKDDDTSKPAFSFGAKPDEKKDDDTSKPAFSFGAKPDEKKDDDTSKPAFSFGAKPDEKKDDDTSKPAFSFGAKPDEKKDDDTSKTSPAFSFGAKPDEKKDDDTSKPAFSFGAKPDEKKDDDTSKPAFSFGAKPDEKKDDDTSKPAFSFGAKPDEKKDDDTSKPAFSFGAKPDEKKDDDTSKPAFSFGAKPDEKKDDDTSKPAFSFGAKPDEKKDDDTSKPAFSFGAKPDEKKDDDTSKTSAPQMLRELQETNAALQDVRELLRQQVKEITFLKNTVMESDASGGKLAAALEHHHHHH
P-cNsp1-P, sequence (chain, as listed by the source): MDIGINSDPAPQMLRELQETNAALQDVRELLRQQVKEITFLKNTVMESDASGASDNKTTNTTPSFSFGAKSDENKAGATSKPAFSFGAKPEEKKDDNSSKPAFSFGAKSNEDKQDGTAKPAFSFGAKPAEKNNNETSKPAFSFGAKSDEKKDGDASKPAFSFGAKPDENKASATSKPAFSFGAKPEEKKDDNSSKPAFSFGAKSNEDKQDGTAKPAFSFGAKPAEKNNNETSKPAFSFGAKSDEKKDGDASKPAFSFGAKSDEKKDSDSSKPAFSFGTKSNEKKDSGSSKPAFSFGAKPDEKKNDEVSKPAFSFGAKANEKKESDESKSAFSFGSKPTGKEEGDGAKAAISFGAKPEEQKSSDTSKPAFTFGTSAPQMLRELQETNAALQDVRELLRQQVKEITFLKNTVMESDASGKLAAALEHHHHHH

- absorption of cargo-importin β complexes by the hydrogel relative to inert molecules in an hour (capillary transport assay, 20 w/v % gel) [1]: 3.9 times more than inert molecules
- absorption of cargo-importin β complexes by the hydrogel relative to inert molecules in an hour (capillary transport assay, 20 w/v % gel) [2]: 2.3 times more than inert molecules
- accumulation of cargo-carrier complexes relative to MBP-mCherry (without the IBB domain) over an hour, 20 w/v % gel [2]: 3 times more than MBP-mCherry
- absorption of cargo-importin β complexes by the hydrogel relative to inert molecules in an hour (capillary transport assay, 20 w/v % gel) [3]: 3.8 times more than inert molecules
- accumulated green fluorescence intensity compared to the intensity without importin β, relative to the P-1NLP-P gel [3]: ~2 fold of P-1NLP-P gel
- accumulation of cargo-carrier complexes in the gel relative to MBP-mCherry (no IBB domain) over three hours, 10 w/v % gel [3]: 5.2 times more than MBP-mCherry
- accumulation of cargo-carrier complexes in the gel relative to MBP-mCherry (no IBB domain) over three hours, 20 w/v % gel [3]: 10.2 times more than MBP-mCherry
- accumulation of cargo-carrier complexes relative to MBP-mCherry (without the IBB domain) over an hour, 20 w/v % gel [3]: 5.3 times more than MBP-mCherry
B1: importin β (receptor, UniProt Q06142 1-861, looked up, not shown: small tags and cut ends)
chain: MSTAEFAQLLENSILSPDQNIRLTSETQLKKLSNDNFLQFAGLSSQVLIDENTKLEGRILAALTLKNELVSKDSVKTQQFAQRWITQVSPEAKNQIKTNALTALVSIEPRIANAAAQLIAAIADIELPHGAWPELMKIMVDNTGAEQPENVKRASLLALGYMCESADPQSQALVSSSNNILIAIVQGAQSTETSKAVRLAALNALADSLIFIKNNMEREGERNYLMQVVCEATQAEDIEVQAAAFGCLCKIMSLYYTFMKPYMEQALYALTIATMKSPNDKVASMTVEFWSTICEEEIDIAYELAQFPQSPLQSYNFALSSIKDVVPNLLNLLTRQNEDPEDDDWNVSMSAGACLQLFAQNCGNHILEPVLEFVEQNITADNWRNREAAVMAFGSIMDGPDKVQRTYYVHQALPSILNLMNDQSLQVKETTAWCIGRIADSVAESIDPQQHLPGVVQACLIGLQDHPKVATNCSWTIINLVEQLAEATPSPIYNFYPALVDGLIGAANRIDNEFNARASAFSALTTMVEYATDTVAETSASISTFVMDKLGQTMSVDENQLTLEDAQSLQELQSNILTVLAAVIRKSPSSVEPVADMLMGLFFRLLEKKDSAFIEDDVFYAISALAASLGKGFEKYLETFSPYLLKALNQVDSPVSITAVGFIADISNSLEEDFRRYSDAMMNVLAQMISNPNARRELKPAVLSVFGDIASNIGADFIPYLNDIMALCVAAQNTKPENGTLEALDYQIKVLEAVLDAYVGIVAGLHDKPEALFPYVGTIFQFIAQVAEDPQLYSEDATSRAAVGLIGDIAAMFPDGSIKQFYGQDWVIDYIKRTRSGQLFSQATKDTARWAREQQKRQLSL

Source: patent US20170304457A1 (MIT, published 2017)
